Assay results taken from publication PMC3678023 (Journal of Molecular Biology, 2013).

B1: wild-type SERT: rat serotonin transporter, wild type (protein, UniProt P31652 1-630, looked up)
Sodium-dependent serotonin …: METTPLNSQKVLSECKDREDCQENGVLQKGVPTTADRAEPSQISNGYSAVPSTSAGDEASHSIPAATTTLVAEIRQGERETWGKKMDFLLSVIGYAVDLGNIWRFPYICYQNGGGAFLLPYTIMAIFGGIPLFYMELALGQYHRNGCISIWRKICPIFKGIGYAICIIAFYIASYYNTIIAWALYYLISSLTDRLPWTSCTNSWNTGNCTNYFAQDNITWTLHSTSPAEEFYLRHVLQIHQSKGLQDLGTISWQLTLCIVLIFTVIYFSIWKGVKTSGKVVWVTATFPYIVLSVLLVRGATLPGAWRGVVFYLKPNWQKLLETGVWVDAAAQIFFSLGPGFGVLLAFASYNKFNNNCYQDALVTSVVNCMTSFVSGFVIFTVLGYMAEMRNEDVSEVAKDAGPSLLFITYAEAIANMPASTFFAIIFFLMLITLGLDSTFAGLEGVITAVLDEFPHIWAKRREWFVLIVVITCVLGSLLTLTSGGAYVVTLLEEYATGPAVLTVALIEAVAVSWFYGITQFCSDVKEMLGFSPGWFWRICWVAISPLFLLFIICSFLMSPPQLRLFQYNYPHWSIVLGYCIGMSSVICIPTYIIYRLISTPGTLKERIIKSITPETPTEIPCGDIRMNAV

What was measured:
[1] = test system: thermostabilised SERT mutants SAH6 and SAH7; assay: Competition binding, statements covering both thermostabilised mutants; parameters: species or system rat; details: over SAH6 and SAH7
Procedure: The samples were incubated for 2 h at 30 °C and then filtered on 96-well glass fibre plates (Millipore) pre-treated with 200 μl of 0.1% polyethyleneimine. The filters were washed three times with 200 μl ice-cold SERT buffer [100 mM NaCl and 20 mM Tris (pH 7.4)], dried for 1 h at 50 °C prior to liquid scintillation counting. Competition binding assays were performed as above, but a range of concentrations of unlabelled ligand was included and a final concentration of 0.2 nM [^125I]RTI55 was used.

[2] = Method: Thermostability assays usually involved adding the radioligand to detergent-solubilised membrane proteins,[9] but the only detergent that SERT was stable in was digitonin,[34] which is unsuitable for crystallography. Therefore, a different assay where an inhibitor was used to stabilise the transporter was developed. This entailed adding [^125I]RTI55 to the T-REx-SERT cells followed by detergent solubilisation and then the thermostability assay (heating samples at various temperatures for 30 min). The apparent Tm was defined as the temperature where 50% of the transporter still bound the radiolabelled inhibitor (Fig. S2).
The thermostability of detergent-solubilised [^125I]RTI55-bound SERT was determined as previously described for GPCRs.[5,6,8,9] Briefly, cells containing unpurified SERT were incubated with 1 nM [^125I]RTI55 for 30 min on ice, which were then solubilised with detergent on ice for 30 min before incubation at varying temperatures for 30 min. The radioligand bound to the membrane protein was separated from free radioligand by centrifugal gel filtration and the radioligand bound to the eluted transporter measured by liquid scintillation counting.

[3] = test system: T-REx-293 cells expressing SAH6-GFP, SAH7-GFP or SERT-GFP; assay: [3H]5HT uptake assay in stable T-REx cell lines; type: cell-based; details: tetracycline-induced stable cell lines, 2 μM [3H]5HT, 25 °C, 3 min
Excerpt: [^3H]5HT was released by rupturing the cells with 2% SDS, which was quantified by liquid scintillation counting.

| Molecule | Lower affinity versus wild-type transporter [1] | Apparent Tm ([2]; [125I]RTI55-bound, solubilised in 0.1% DDM, heated 30 min) | Transporter remaining functional after heating ([2]; single-temperature assay, 28 °C for 30 min) | [3H]5HT transport [3] |
| --- | --- | --- | --- | --- |
| ibogaine | up to 90 fold |  |  |  |
| B1 |  | 28 °C | approximately 40% | robust transport |
